{"source": "paper PMC3818982", "about": "(Microbial Cell Factories, 2013)", "binders": {"B1": {"name": "EGFR-specific single-domain antibody EG2 (VHH)", "VHH": "QVKLEESGGGLVQAGDSLRVSCAASGRDFSDYVMGWFRQAPGKEREFVAAISRNGLTTRYADSVKGRFTISRDNDKNMVYLQMNSLKPEDTAVYYCAVNSAGTYVSPRSREYDYWGQGTQVTVSS", "notes": "an initial methionine was added by the NcoI site; Camelid-derived sdAb; Intradomain disulfide bridge formed in about 98% of the purified protein; also called sdAb EG2; ^99mTc-EG2; source: E. coli SHuffle T7 Express, cytoplasm (pET-28b:EG2), purified (Ni-IDA IMAC); not shown: His6, C-terminal, kept"}}, "biological_target": "T1, human epidermal growth factor receptor (EGFR) (Homo sapiens (A431 and FaDu cells), UniProt P00533)", "T1 construct": "human EGFR, full-length receptor presented by living A431 (epidermoid carcinoma) and FaDu (squamous carcinoma) cells; also called human EGFR; source: endogenous, on living A431 and FaDu cells", "experiment": "radioligand binding; ^99mTc-labelled sdAb on A431 and FaDu cells, 1 h on ice, with or without pre-blocking by a 40-fold excess of unlabeled Cetuximab; read-out % ID/mg protein", "conditions": "one partner purified"}
{"binder": "B1", "values": [{"measurement": "binding result", "value": "binds"}]}
